Each block holds one binder with its values, some of them ahead of it.
Key:
[1] = molecular target: CIP2A (endogenous) (human, UniProt Q8TCG1 1-905); experiment: LacR/LacO assay in U2OS lacO256 cells, endogenous CIP2A at the lacO array
[2] = molecular target: T1, GST-CIP2A (1-560) (human, UniProt Q8TCG1 1-560); experiment: GST pull-down with bacterially produced proteins on glutathione resin, immunoblot anti-MBP
T1 construct: Expressed in Escherichia coli and coupled to glutathione sepharose 4B; not shown: Glutathione S-transferase tag of vector pGEX4T1
Protocol: MBP and GST proteins expressed in Escherichia coli were purified on amylose (New England Biolabs) or glutathione sepharose 4B (GE Healthcare) resins according to the batch method described by the manufacturer and stored in 20 mM Tris-HCl pH 8.0, 150 mM NaCl, 1 mM DTT, 5% glycerol. […] Beads were extensively washed prior to analysis by immunoblotting.

- binding result [1]: no binding
B1: mCherry-LacR-TOPBP1 3A (other)
chain: MSRNDKEPFFVKFLKSSDNSKCFFKALESIKEFQSEEYLQIITEEEALKIKENDRSLYICDPFSGVVFDHLKKLGCRIVGPQVVIFCMHHQRCVPRAEHPVYNMVMSDVTISCTSLEKEKREEVHKYVQMMGGRVYRDLNVSVTHLIAGEVGSKKYLVAANLKKPILLPSWIKTLWEKSQEKKITRYTDINMEDFKCPIFLGCIICVTGLCGLDRKEVQQLTVKHGGQYMGQLKMNECTHLIVQEPKGQKYECAKRWNVHCVTTQWFFDSIEKGFCQDESIYKTEPRPEAKTMPNSSTPTSQINTIDSRTLSDVSNISNINASCVSESICNSLNSKLEPTLENLENLDVSAFQAPEDLLDGCRIYLCGFSGRKLDKLRRLINSGGGVRFNQLNEDVTHVIVGDYDDELKQFWNKSAHRPHVVGAKWLLECFSKGYMLSEEPYIHANYQPVEIPVSHKPESKAALLKKKNSSFSKKDFAPSEKHEQADEDLLSQYENGSSTVVEAKTSEARPFNDSTHAEPLNDSTHISLQEENQSSVSHCVPDVSTITEEGLFSQKSFLVLGFSNENESNIANIIKENAGKIMSLLSRTVADYAVVPLLGCEVEATVGEVVTNTWLVTCIDYQTLFDPKSNPLFTPVPVMTGMTPLEDCVISFSQCAGAEKESLTFLANLLGASVQEYFVRKSNAKKGMFASTHLILKERGGSKYEAAKKWNLPAVTIAWLLETARTGKRADESHFLIENSTKEERSLETEITNGINLNSDTAEHPGTRLQTHRKTVVTPLDMNRFQSKAFRAVVSQHARQVAASPAVGQPLQKEPSLHLDTPSKFLSKDKLFKPSAAAKDALAALETPGRPSQQKRKPSTPLSEVIVKNLQLALANSSRNAVALSASPQLKEAQSEKEEAPKPLHKVVVCVSKKLSKKQSELNGIAASLGADYRWSFDETVTHFIYQGRPNDTNREYKSVKERGVHIVSEHWLLDCAQECKHLPESLYPHTYNPKMSLDISAVQDGRLCNSRLLSAVSSTKDDEPDPLILEENDVDNMATNNKESAPSNGSGKNDSKGVLTQTLEMRENFQKQLQEIMSATSIVKPQGQRTSLSRSGCNSASSTPDSTRSARSGRSRVLEALRQSRQTVPDVNTEPSQNEQIIWDDPTAREERARLASNLQWPSCPTQYSELQVDIQNLEDSPFQKPLHDSEIAKQAVCDPGNIRVTEAPKHPISEELETPIKDSHLIPTPQAPSIAFPLANPPVAPHPREKIITIEETHEELKKQYIFQLSSLNPQERIDYCHLIEKLGGLVIEKQCFDPTCTHIVVGHPLRNEKYLASVAAGKWVLHRSYLEACRTAGHFVQEEDYEWGSSSILDVLTGINVQQRRLALAAMRWRKKIQQRQESGIVEGAFSGWKVILHVDQSREAGFKRLLQSGGAKVLPGHSVPLFKEATHLFSDLNKLKPDDSGVNIAEAAAQNVYCLRTEYIADYLMQESPPHVENYCLPEAISFIQNNKELGTGLSQKRKAPTEKNKIKRPRVH
notes: also called Flag-LacR-TOPBP1^3A; not shown: The mCherry-LacR carrier (Flag-LacR in the legend and methods) and its linker

- binding result [2]: no binding
B2: MBP-TOPBP1756-999-3A (other, not shown: large carriers)
chain: LNSDTAEHPGTRLQTHRKTVVTPLDMNRFQSKAFRAVVSQHARQVAASPAVGQPLQKEPSLHLDTPSKFLSKDKLFKPSAAAKDALAALETPGRPSQQKRKPSTPLSEVIVKNLQLALANSSRNAVALSASPQLKEAQSEKEEAPKPLHKVVVCVSKKLSKKQSELNGIAASLGADYRWSFDETVTHFIYQGRPNDTNREYKSVKERGVHIVSEHWLLDCAQECKHLPESLYPHTYNPKMSLDI

From patent US20220153793A1 (SINAI HEALTH SYSTEM, published 2022)
